Laboratory results published in PMC10967930.
pKd: −log10 of the molar value.

Columns and labels:
[1] = target: full-length SARS-CoV-2 spike protein of original COVID-19 (SARS-CoV-2) (UniProt P0DTC2); experiment: ELISA
[2] = target: human PF4 isolated from human platelets (human); experiment: other fluorescence titration

| Substance | OD at 450 nm [1] | pKd [2] |
| --- | --- | --- |
| human PF4 isolated from human platelets (natural protein) | > 0.5 | – |
| full-length SARS-CoV-2 spike protein of original COVID-19 (from UniProt P0DTC2) (natural protein) | – | 6.23 |
